Measured values taken from patent US7638284B2, “Immunoglobulin A inducing protein and uses therefor” (The Curators of the University of Missouri, priority 2000, dated 2009).

Tested on: IGIP transcripts
Assay: RT-PCR of IGIP transcripts in stimulated monocyte derived dendritic cells
Format: cell-based
Details: human monocyte derived dendritic cells
Description: PBMCs were labeled with anti-CD14 microbeads at 4° C. for 45 minutes, washed three times in sorting buffer. Pure CD14+blood monocytes were then separated by AutoMACS, and cultured at 37° C. for 6 days in cRPMI with 1400 U/ml Leukine (rhGM-CSF) and 10 ng/ml rhIL-4. Non-adherent cells were collected at day six, and purity of dendritic cells was determined by flow cytometry.
Enriched dendritic cell cultures were stimulated with rhCD40L, Pam3CSK, Poly I:C, LPS, CpG DNA, or PMA and Ionomycin for 0, 12, 18, 24, 48, and 72 hours. Total RNA was extracted from harvested cells and treated with DNase to remove any potential contaminating DNA. IGIP was amplified by RT-PCR.
Human dendritic cells (DC) were derived from peripheral blood monocytes by culturing in GM-CSF and IL-4 for 6-7 days. IGIP transcripts were detected by RT-PCR in total RNA from approximately 10^6 monocyte derived DC (mDC) following either Toll-like receptor (TLR) binding or CD40 ligation.

B1: CD40L: rhCD40L used to stimulate dendritic cell cultures (protein, UniProt P29965 113-261, looked up)
CD40 ligand, soluble form: MQKGDQNPQIAAHVISEASSKTTSVLQWAEKGYYTMSNNLVTLENGKQLTVKRQGLYYIYAQVTFCSNREASSQAPFIASLCLKSPGRFERILLRAANTHSSAKPCGQQSIHLGGVFELQPGASVFVNVTDPSQVSHGTGFTSFGLLKL
- loss of IGIP transcripts post stimulation: no longer detectable after 48 hours
- time after stimulation at which IGIP was detectable: approximately 12 hours
- time of peak IGIP expression: 24 h
